This assay addresses T1, cynoPD-1 His (AcroBiosystems PD1-C5223) (cynomolgus monkey, UniProt B0LAJ3 25-170).
T1 construct: also called cPD-1
Put plainly: SPR, antibody captured.

T1 sequence (B0LAJ3 entry or part of it limits assumed, form in doubt): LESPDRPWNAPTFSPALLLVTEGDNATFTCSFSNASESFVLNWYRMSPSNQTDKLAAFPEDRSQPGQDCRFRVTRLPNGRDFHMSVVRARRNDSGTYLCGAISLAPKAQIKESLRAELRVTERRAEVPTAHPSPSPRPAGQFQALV

B1: z5-XVT458 (antibody, human IgG1, kappa, V domains shown)
VH: QVQLVQSGAEVKKPGASVKVSCKASGYTFTNFYIHWVRQAPGQGLEWMGSIYPNYGDTAYNQKFKDRATMTTDKSTSTAYMELRSLRSDDTAVYYCARGYSYAMDYWGQGTTVTVSS
VL: DIQMTQSPSSVSASVGDRVTITCSASQGISGDLNWYQQKPGKAPKLLIYHTSSLHSGVPSRFSGSGSGTDFTLTISSLQPEDFATYYCQYYSKDLLTFGGGTKLEIKR
notes: full hIgG1 format
As for B1, the koff (in general, the rate constant with which the complex falls apart) came to 0.00338 s⁻¹.

The record behind these values is patent EP4491631A1 (Anaveon AG, dated 2025).
